{"source": "patent US20240294670A1", "about": "(University of Texas, published 2024)", "binders": {"B1": {"name": "anti-CHI3L1 monoclonal antibody C57 (antibody, V domains shown)", "VH": "QSVEESGGGLVQPGGSLTLTCKASGFSFSSGYWMCWVRQAPGKGLEWIACIGASYGGTFYASWAKGRFTISKTSSTTVTLQMTSLTAADTATYFCTRDDGGLDNPNLWGPGTLVTVSS", "VL": "DPVLTQTPASVEAAVGGTVTIKCQASQSIGSILAWYQQKPGQPPHLLIYAAAKLASGVPSRFKGSGSGTQFTLTISGVECDDAATYYCQSYYYSVTTSYSNSFGGGTEVVVK", "notes": "Rabbit mAb from single B cells, expressed as full length IgG in HEK293"}, "B2": {"name": "anti-CHI3L1 monoclonal antibody C61 (antibody, V domains shown)", "VH": "QEQLEESGGDLVKPEGSLTLTCTASGFSFSSSYWICWVRQAPGKGLEWIACIYAGGSGSTYYASWAKGRFTISKTSSTTVTLQMTSLTAADAATYFCARDGVSGSGWFFNLWGPGTLVTVSS", "VL": "DVVMTQTPASVSEPVGGTVTIKCQASQSISSYLTWYQQKPGQPPKLLIYKASTLASGVSSRFKGSGSGTEFTLTISDLECADAATYYCQSSYYGPSDVDFSPFGGGTEVEIK", "notes": "as for B1"}, "B3": {"name": "anti-CHI3L1 monoclonal antibody C64 (antibody, V domains shown)", "VH": "QSVEESGGDLVKPGASLTLTCTASGFSFSNNYWICWIRQAPGKGLEWIACIYAGDTGTAYYANWAKGRFTISKTSSTTVTLQMTSLTAADTATYFCARDGDGVGNGGTFALWGPGTLVTVSS", "VL": "ALVMTQTPASVEAAVGGTVTIRCQASERIGNALAWYQQKPGQPPKLLIYQTSKLTSGVPSRFKGSGSGTEHTLTISDLECADAATYYCQSYYYTGSISYEFGGGTKVVVE", "notes": "as for B1"}, "B4": {"name": "anti-CHI3L1 monoclonal antibody C68 (antibody, V domains shown)", "VH": "QSVEESGGDLVKPGASLTLTCTASGFSFSGPYWISWVRQAPGRGLEWIASIGARSSGSTHYASWAKGRFTISKTASTTVTLQMTSLTAADTATYFCARSYPAYAGDGYALYYFNLWGPGTLVTVSS", "VL": "DVVMTQTPASVSAAVGGTVTIKCQASEDIYSLLAWYQQKPGQPPKFLIYDASDLASGVPSRFSGSGSGTEYTLTINDLKCDDAATYYCQGGYYSGDGTDIPFGGGTELEIL", "notes": "as for B1"}, "B5": {"name": "anti-CHI3L1 monoclonal antibody C55 (antibody, V domains shown)", "VH": "QSVKESGGDLVKPGASLTLTCTASGFSFSSDYDIYWVRQAPGKGLEWIAWIDGGSSGEIYANWAKGRFTISKTSSTTVTLQMTSLTAADTAAYFCARCIWSHNYYDLWGPGTLVTVSS", "VL": "AIKMTQTPSSVSAAVGGTVTINCQASEDIENYLAWYQQKPGQPPKLLIYRASTLASGVSSRFKGSGSGTEFTLTISDLECADAATYWCQQGYSGSNVDNFFGGGTKVVVE", "notes": "Rabbit mAb from single B cells, expressed as full length IgG in HEK293; also called clone 55"}, "B6": {"name": "anti-CHI3L1 monoclonal antibody C65 (antibody, V domains shown)", "VH": "QSVEESGGGLVQPEGSLTLTCTASGFSFSSSYYMCWVRQAPGKGLEWIACIFTGGVSTYYASWVNGRFTISKTSSTTVTLQMTSLTAADTATYFCARTYTAGFTGDNYFNLWGPGTLVTVSS", "VL": "AQVLTQTPASVEAAVGGTVTIKCQASQSISSYLAWYQQKPGQPPKLLIYRASTLASGVPSRFKGSGSGTEFTLTISDLECADAATYYCQSDYYSSSSNNGFVFGGGTEVVVK", "notes": "as for B1"}, "B7": {"name": "anti-CHI3L1 monoclonal antibody C15 (antibody, V domains shown)", "VH": "QSVKESGGGLVQPEGSLTLTCTASGFDFSSNAMCWVRQAPGKGPEWIACIYNGDASTYYASWAKGRSTISKTSSTTVTLQMTSLTAADTATYFCARCFNRFYRGDLWGPGTLVTVSS", "VL": "DPMLTQTPSSVSAAVGGTVSISCQSSQSVYDNDWLSWYQQKPGQPPKLLIYDASKLASGVPSRFKGSGSGTQFTLTISDVQCDAAATYYCAGDYINTIDNAFGGGTEVVVK", "notes": "Rabbit mAb"}, "B8": {"name": "anti-CHI3L1 monoclonal antibody C17 (antibody, V domains shown)", "VH": "QSVKESGGDLVKPGASLTLTCTASGFSFSSSYWICWVRQAPGKGLEWIACIDAGSSESTYYASWAKGRFTISKTSSTTVTLQMTSLTAADTATYFCARDSRVVAGVGMYLNLWGPGTLVTVSS", "VL": "AIKMTQTPASVEVAVGGTVTIKCQASQSIGIYLAWYQQKPGQPPKLLIYDASDLASGVPSRFRGSGSGTQFTLTISGVECADAATYYCQQGDTIYNVDNTFGGGTKVVVE", "notes": "Rabbit mAb"}, "B9": {"name": "anti-CHI3L1 monoclonal antibody C18 (antibody, V domains shown)", "VH": "KQLVEESGGDLVRPEGSLTLTCKGSGFDFSRNAMCWVRQAPGKGLEWIACIYVGSGGGTYYATWAKGRFTISKTSSTTVTLQMTSLTAADTATYFCAGSPYSGYGYFNLWGPGTLVTVSS", "VL": "DPMLTQTPASVSEPVGGTVTIKCQASQSISTALAWYQQKPGQPPKLLIYRASILASGVPSRFKGSGSGTEFTLTISDLECADAATYYCQSYYDSSAGNTFGGGTKVEIK", "notes": "Rabbit mAb"}, "B10": {"name": "anti-CHI3L1 monoclonal antibody C19 (antibody, V domains shown)", "VH": "QEQLVEYGGDLVQPEGSLTLTCTASGFTISSTFYMGWVRQAPGKGLEWIGDMHVGSATTTYYASWAKGRFTISKPSSTTVTLQMTSLTAADTATYFCARYVNSGYYMDSWGPGTLVTVSS", "VL": "AQVLTQTPASVEVAVGGTVTIKCQASQTISNLLAWYQQKPGQPPKLLIYDASTLAYGVSSRFSGSGSGTQFTLTISGVQCADAATYYCQQGWSSSNVDNVFGGGTKLEIK", "notes": "Rabbit mAb"}, "B11": {"name": "anti-CHI3L1 monoclonal antibody C21 (antibody, V domains shown)", "VH": "QSVKESGGGLVQPEGSLTLTCTASGFSFSSSYYMCWVRQAPGKGLEWIACIYNGDGSTYYASWAKGRFTISKTSSTTVTLQMTSLTAADTATYFCARDADYAGVVLNLWGPGTLVTVSS", "VL": "AQVLTQTPASVEAAVGGTVTIKCQASESIGNALAWYQQKPGQPPKLLIYVASYLASGVSSRFKGSRSGTEYTLTISDLECVDAATYYCQCTWYGNVYLAFGGGTEVVVK", "notes": "Rabbit mAb"}, "B12": {"name": "C22 (antibody, V domains shown)", "VH": "QLVEESGGGLVKPGAPLTLTCTLSGFSFSSGYYMCWVRQAPGKGLEWIACIYGAVSDRIYFASWAKGRFTMSRPSSTTVTLQMTSLTAADTATYFCARDSYSGSTYYRSYYFNLWGPGTLVTVSS", "VL": "DPVLTQTPASVSAAVGGTVTISCQSNENIYVDKYLSWYQQKPGQPPKGLIYSASTLASGVPSRFRGSGSGTQFTLTISDVQCDDAATYYCAGSFSSSDSCAFGGGTEVVVK", "notes": "also called anti-CHI3L1 monoclonal antibody C22"}, "B13": {"name": "anti-CHI3L1 monoclonal antibody C23 (antibody, V domains shown)", "VH": "QSVKESGGGLVQPGGSLTLSCKASGFDFSSYYMSWVRQAPGKGLEWIGIIYGGKGTTDYASWVNGRFTISSDNAQNTVDLQMNSLTAADTATYFCARDYVSSSGYYMDLWGPGTLVTVSS", "VL": "ALVMTQTPASVSAAVGGTVTIKCQASEDIYSLLAWYQQKPGQPPKLLIYDASDLASGVPSRFSGSGSGTEYTLTISDLECDDAATYYCQGGYYSGSPTDNSFGGGTKVVVE", "notes": "Rabbit mAb"}, "B14": {"name": "anti-CHI3L1 monoclonal antibody C25 (antibody, V domains shown)", "VH": "QSVEESGGDLVKPGASLTLTCTASGFSFSSSYYMCWVRQAPGKGLEWIACIYAGSSGSTWYASWAKGRFTISITSSTTVTLQMTSLTAADTATYFCARDRYGGGSYYIPYYFDLWGPGTLVTVSS", "VL": "ALVMTQTPSPVSAAVGGTVTINCQASQNIYVDSYLAWYQQKSGQPPKLLIYYASSLASGVPSRFSGSGSGTQFTLTISDLECDDAATYYCAGGYSADSDNAFGGGTEVVVK", "notes": "Rabbit mAb"}, "B15": {"name": "anti-CHI3L1 monoclonal antibody C27 (antibody, V domains shown)", "VH": "QSVEESGGGLVKPEGSLTLTCTASGFSFSYRYYMCWVRQAPGKGLEWIGCIDNGDGDTYYASWVNGRFTISKASSTTVTLQMTSLTAADTATYFCARGSSGYNGFNFWGPGTLVTVSS", "VL": "ALVMTQTPASVSAAVAGTVTIKCQASQSIGSYLAWYQQKPGQPPKLLIYATSILASGVSSRLKGSRSGTEYTLTISDLECADAATYYCQCGYYDSNYGGAFGGGTEVVVK", "notes": "Rabbit mAb"}, "B16": {"name": "anti-CHI3L1 monoclonal antibody C30 (antibody, V domains shown)", "VH": "QEQLVESGGGLVTPGGTLTLTCTASGFDFSSYYYMCWVRQAPGKGLELIAAIDTGSGETYYASWANGRFTISKTSSTTVTLQMTSLTAADTATYFCARDPYFGTNLWGPGTLVTVSS", "VL": "DPMLTQTPSPVSAAVGGTVTITCQASQSVYNNNYLSWFQQKPGQPPKLLIYKASILASGVPSRFKGSGSGTQFTLTISDLQCDDAATYYCLGGYSSPSDDAFGGGTKVVVE", "notes": "Rabbit mAb"}}}
{"molecular_target": "T1, recombinant mouse CHI3L1 (mouse, UniProt Q61362 30-389, limits assumed)", "T1 construct": "His-tagged; also called mCHI3L1; mChi3l1", "T1 sequence (Q61362 30-389 limits assumed)": "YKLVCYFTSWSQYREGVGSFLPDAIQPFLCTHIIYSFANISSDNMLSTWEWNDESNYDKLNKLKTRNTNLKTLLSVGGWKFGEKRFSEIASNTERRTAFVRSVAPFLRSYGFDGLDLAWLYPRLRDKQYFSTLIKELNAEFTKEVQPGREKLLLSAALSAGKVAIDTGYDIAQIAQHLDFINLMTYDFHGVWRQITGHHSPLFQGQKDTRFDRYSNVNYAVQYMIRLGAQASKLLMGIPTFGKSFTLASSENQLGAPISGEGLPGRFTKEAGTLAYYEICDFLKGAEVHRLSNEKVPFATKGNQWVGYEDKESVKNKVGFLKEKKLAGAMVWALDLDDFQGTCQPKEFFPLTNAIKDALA", "test": "BLI (Octet), mAb on protein A sensor, CHI3L1 in solution, 1:1 fit", "procedure": "FIG. 8. Kinetic binding sensorgrams collected on Octet instrument for determination of kon and koff rates for each CHI3L1 antibody.\nBinding affinity of anti-CHI3L1 monoclonal antibodies determined using Bio-layer interferometry (BLI), a sensor-based Octet instrument. […] Following by kinetics buffer washing to baseline, the loaded biosensors were exposed to a series of recombinant CHI3L1 protein at 0.1-200 nM range and background subtraction was used to correct for any background from sensor drifting. All experiments were performed with shaking at 1,000 rpm. Background wavelength shifts were measured from reference biosensors that were loaded with antibody and followed with buffer without antigen. ForteBio's data analysis software was used to fit the data to a 1:1 binding model to extract an association rate and dissociation rate. The KD was calculated using the ratio of koff/kon and the estimated values of KD for CHI3L1 mAbs in Table C.", "units": {"Kd": "nM", "koff": "s⁻¹", "kon": "M⁻¹ s⁻¹"}}
{"binder": "B1", "Kd": 4.09, "koff": 0.000223, "kon": 54500}
{"binder": "B2", "Kd": 2.81, "koff": 0.000201, "kon": 71500}
{"binder": "B3", "Kd": 0.254, "koff": "2.71e-05", "kon": 107000}
{"binder": "B4", "Kd": 0.799, "koff": 0.00011, "kon": 138000}
{"binder": "B5", "Kd": 1.22, "koff": 0.000141, "kon": 115000}
{"binder": "B6", "Kd": 6, "koff": 0.000756, "kon": 126000}
{"molecular_target": "T2, recombinant human CHI3L1 (human, UniProt P36222 22-383)", "T2 construct": "His-tagged recombinant protein (Sino Biological 11227-H08H, or in-house HEK293 protein with 6xHIS-tag and avi-tag); also called hCHI3L1; hChi3l1", "T2 sequence (P36222 22-383 limits assumed)": "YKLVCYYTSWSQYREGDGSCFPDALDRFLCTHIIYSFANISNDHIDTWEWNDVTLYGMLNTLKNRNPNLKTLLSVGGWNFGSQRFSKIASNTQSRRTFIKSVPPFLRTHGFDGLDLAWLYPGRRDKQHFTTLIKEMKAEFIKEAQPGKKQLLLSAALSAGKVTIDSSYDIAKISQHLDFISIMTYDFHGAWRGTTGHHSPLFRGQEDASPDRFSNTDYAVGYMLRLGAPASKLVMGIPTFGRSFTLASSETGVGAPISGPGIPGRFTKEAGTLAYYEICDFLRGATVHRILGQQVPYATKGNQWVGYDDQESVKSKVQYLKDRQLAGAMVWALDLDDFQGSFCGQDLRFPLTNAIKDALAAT", "test": "ELISA: human CHI3L1 coated on the plate, B cell culture supernatant 100 ul/well, A450", "procedure": "(§1) FIG. 7. The ELISA binding of the supernatant antibody to the human CHI3L1. (hCHI3L1), and mouse CHI3L1 (mCHI3L1). The CHI3L1 protein was coated on maxi-sorp 96-well plates, cell culture supernatant (100 ul/well) was used for binding on the antigen coated plate. Binding signals (A450 nm) are shown in Y-axis and CHI3L1 mAbs are shown on X-axis.\n(§2) Binding affinity of anti-CHI3L1 monoclonal antibodies to the CHI3L1 protein using ELISA method. Binding of CHI3L1 by monoclonal antibodies was first screened by ELISA using supernatants collected from the B cell cultures and cross reactivity to mouse CHI3L1 protein was determined (FIG. 7)."}
{"binder": "B7", "binding result": "binds"}
{"binder": "B8", "binding result": "binds"}
{"binder": "B9", "binding result": "binds"}
{"binder": "B10", "binding result": "binds"}
{"binder": "B11", "binding result": "binds"}
{"binder": "B12", "binding result": "binds"}
{"binder": "B13", "binding result": "binds"}
{"binder": "B14", "binding result": "binds"}
{"binder": "B15", "binding result": "binds"}
{"binder": "B16", "binding result": "binds"}
{"binder": "B1", "binding result": "no binding"}
{"binder": "B2", "binding result": "no binding"}
{"binder": "B3", "binding result": "no binding"}
{"binder": "B4", "binding result": "no binding"}
{"molecular_target": "T1, recombinant mouse CHI3L1", "test": "ELISA: mouse CHI3L1 coated on the plate, B cell culture supernatant 100 ul/well, A450", "procedure": "as §1, §2"}
{"binder": "B7", "binding result": "binds"}
{"binder": "B8", "binding result": "no binding"}
{"binder": "B9", "binding result": "no binding"}
{"binder": "B10", "binding result": "no binding"}
{"binder": "B11", "binding result": "no binding"}
{"binder": "B12", "binding result": "no binding"}
{"binder": "B13", "binding result": "no binding"}
{"binder": "B14", "binding result": "no binding"}
{"binder": "B15", "binding result": "no binding"}
